Measurements: article PMC7089970, “Structural insights into catalytic mechanism and product delivery of cyanobacterial acyl-acyl carrier protein reductase” (Nature Communications, 2020)
Values joined by “and” are separate entries in the source; they are usually repeats but may differ in a detail not shown here. Equal values may be shown once. “Also recorded” adds a separate entry of the source. Read-outs that look alike come from different tables or passages of the source.

Columns and labels:
[1] = for heptadecane product yield of wild-type ADO compared with triple mutant E196A/E200A/D201A of ADO: both incubated with AAR
Description: For measuring the enzymatic activity of AAR, the AAR protein at the concentration of 20 µM was mixed with 2 mM NADPH and 0.5 mM stearoyl-CoA in a 100 µL reaction buffer containing 20 mM HEPES pH 7.5, 200 mM KCl, 0.5 mM MgCl2, and 0.5 mM TCEP. […] The ferrodoxin and FNR are recombinant proteins from cyanobacterial strains Synechocystis sp. […] PCC 7942, respectively, and were added into the reaction buffer for supplying electrons for the reduction of ADO. The mixture was incubated at 30 °C for 5 h. The produced octadecanal and heptadecane were extracted by addition of an equal volume of ethyl acetate (Sigma Aldrich, HPLC grade) and centrifuged at 13,000 × g for 15 min at room temperature. The extraction step was repeated for three times. The extracted supernatant was pooled together, dried with nitrogen gas, and then resolved in 20 µL ethyl acetate for the GC-MS measurement.
The concentration of octadecanal and heptadecane was measured using an Agilent 7890 A gas chromatograph coupled with an Agilent 7000B QQQ mass spectrometer. A total of 2 µL sample was loaded with the helium as the carrier gas onto the chromatographic column HP-5ms (30 mM × 0.25 mM ID, 0.25 μm; Agilent) at the flow rate of 1.3 ml min^−1. The injector temperature maintained at 300 °C with spotless mode. The GC oven settings were as follows: initial temperature 75 °C, held for 5 min, then at 40 °C min^−1, increased to 325 °C and held for 5 min. Ionization mode of EI (70 eV, 230 °C) and full scan of 50–550 m/z were chosen for MS detection. The standard curve was plotted based on the measuring of the commercial octadecanal and heptadecane (Sigma Aldrich) at a gradient concentration (from 3.125 to 75 µg mL^−1). Data were acquired and processed using MassHunter Workstation Software and the NIST database.

[2] = ITC; for Kd: read-out: KD value, binding with stearoyl-CoA, presence of potassium ion (+K+, 200 mM KCl), N.D. = not detected; for binding of AAR mutant with stearoyl-CoA (in words): +K+
Description: (§1) The binding affinity of AAR with ADO or stearoyl-CoA was measured by isotheral titration calorimetry (ITC) using a MicroCal Auto-ITC200 microcalorimeter (GE Healthcare Bio-sciences, Pittsburgh, PA). […] Wild type or mutants of ADO (or AAR) were placed into the sample cell (200 µL working volume) at a final concentration of 30 µM (60 µM for AAR) and was titrated with successive 2-µL injections of AAR protein with concentration of 500 µM (or ADO protein with concentration of 1 mM). Titrating AAR (500 µM) or ADO (1 mM) into the same buffer was performed as a control to determine the background correction. […] Injection of stearyol-CoA into the reaction buffer was performed as control to determine background correction.

[3] = Enzymatic activity assay of AAR toward stearoyl-CoA (octadecanal by GC-MS); format: biochemical, Synechococcus elongatus PCC 7942
Description: PCC 6803 and Synechocystis sp. […] The extraction step was repeated for three times.

[4] = target: T1, ADO (Synechococcus elongatus, UniProt Q54764); assay: ITC binding of AAR (wild type and mutants) with ADO; parameters: species or system Synechococcus elongatus PCC 7942
T1 construct: His6-tag peptide (C, cleaved yes); made in house; host or cells: E. coli BL21(DE3), without chaperone plasmid
T1 sequence (Q54764 1-231): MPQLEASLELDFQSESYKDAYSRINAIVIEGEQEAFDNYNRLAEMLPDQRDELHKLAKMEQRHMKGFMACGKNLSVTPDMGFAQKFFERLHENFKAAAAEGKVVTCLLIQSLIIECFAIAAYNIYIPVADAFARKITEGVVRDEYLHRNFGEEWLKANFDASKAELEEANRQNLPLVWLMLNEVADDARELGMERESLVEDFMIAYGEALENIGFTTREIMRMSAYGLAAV
Description: as §1

[5] = target: T2, acyl-acyl carrier protein (acyl-ACP) reductase from Synechococcus elongatus PCC 7942, wild type, His-tag … (Synechococcus elongatus PCC 7942, UniProt Q54765 1-341); assay: ITC; ADO (wild type or mutant) in the sample cell at 30 µM, titrated with 2-µL injections of 500 µM AAR; 25 mM Tris-HCl pH 7.5, 1 mM TCEP; details: both partners purified
T2 construct: acyl-ACP reductase (AAR), Synechococcus elongatus PCC 7942, gene Synpcc7942_1594; complete protein of 341 residues; after TEV cleavage ENLYFQ probably stays at the C-terminus (surmised); also called AAR; SeAAR; not shown: His6, C-terminal, cleaved
T2 sequence (looked up): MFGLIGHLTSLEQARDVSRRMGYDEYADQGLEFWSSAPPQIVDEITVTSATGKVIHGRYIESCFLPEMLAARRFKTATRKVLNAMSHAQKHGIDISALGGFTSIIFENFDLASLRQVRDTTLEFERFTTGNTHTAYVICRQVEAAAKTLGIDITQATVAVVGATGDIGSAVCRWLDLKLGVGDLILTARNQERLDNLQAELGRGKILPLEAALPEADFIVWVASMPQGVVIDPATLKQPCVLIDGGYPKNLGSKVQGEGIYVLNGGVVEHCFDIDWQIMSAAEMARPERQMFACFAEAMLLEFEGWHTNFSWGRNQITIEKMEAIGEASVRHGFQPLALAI

[6] = target: T3, AAR (Synechococcus elongatus, UniProt Q54765); assay: ITC binding of ADO (wild type and mutants) with AAR; parameters: species or system Synechococcus elongatus PCC 7942
T3 construct: modeled the complete AAR protein containing 341 amino acid residues; 22-residue C-terminal peptide with His6 (G + […]) (C, cleaved yes); made in house; host or cells: E. coli BL21(DE3) co-transformed with chaperone plasmid pG-KJE8
T3 sequence (Q54765 1-341): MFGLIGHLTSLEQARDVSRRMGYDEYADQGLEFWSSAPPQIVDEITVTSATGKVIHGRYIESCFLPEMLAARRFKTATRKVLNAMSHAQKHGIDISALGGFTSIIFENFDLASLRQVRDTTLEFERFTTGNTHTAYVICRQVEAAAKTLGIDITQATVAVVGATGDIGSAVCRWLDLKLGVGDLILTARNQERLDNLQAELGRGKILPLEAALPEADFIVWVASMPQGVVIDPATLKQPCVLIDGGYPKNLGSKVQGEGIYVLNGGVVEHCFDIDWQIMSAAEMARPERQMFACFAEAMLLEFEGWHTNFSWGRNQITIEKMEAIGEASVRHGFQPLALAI
Description: as §1

With “ADO wild type: aldehyde-deformylating oxygenase from Synechococcus elongatus PCC 7942, wild type recombinant protein” the “heptadecane product yield of wild-type ADO compared with triple mutant E196A/E200A/D201A of ADO” value ([1]; listed as wild type ADO) was “more than twice” and the “heptadecane product yield of wild-type ADO compared with triple mutant E196A/E200A/D201A of ADO” value ([1]; listed as wild-type ADO) was “two times more product”.

For “AAR wild type: acyl-acyl carrier protein reductase from Synechococcus elongatus PCC 7942, wild type recombinant protein”, the “binding between AAR and stearoyl-CoA for AAR incubated with NADPH (in words)” value [2] was “not significantly affected by NADPH”, the Kd ([2]; listed as AAR) was 90 nM and the Kd ([2]; listed as apo-AAR) was about 90 nM. For the same molecule, the “Octadecanal yield, single data (data1-data3)” value [3] was 5.8 and 7.04 and 5.2.

B1: AAR R73A (protein)
chain: MFGLIGHLTSLEQARDVSRRMGYDEYADQGLEFWSSAPPQIVDEITVTSATGKVIHGRYIESCFLPEMLAARAFKTATRKVLNAMSHAQKHGIDISALGGFTSIIFENFDLASLRQVRDTTLEFERFTTGNTHTAYVICRQVEAAAKTLGIDITQATVAVVGATGDIGSAVCRWLDLKLGVGDLILTARNQERLDNLQAELGRGKILPLEAALPEADFIVWVASMPQGVVIDPATLKQPCVLIDGGYPKNLGSKVQGEGIYVLNGGVVEHCFDIDWQIMSAAEMARPERQMFACFAEAMLLEFEGWHTNFSWGRNQITIEKMEAIGEASVRHGFQPLALAI
modifications: left off: His6, C-terminal, cleaved
For B1, the “binding of AAR mutant with ADO (in words)” value [4] was “abolish the binding capability with ADO”.

B2: AAR K80A (protein)
chain: MFGLIGHLTSLEQARDVSRRMGYDEYADQGLEFWSSAPPQIVDEITVTSATGKVIHGRYIESCFLPEMLAARRFKTATRAVLNAMSHAQKHGIDISALGGFTSIIFENFDLASLRQVRDTTLEFERFTTGNTHTAYVICRQVEAAAKTLGIDITQATVAVVGATGDIGSAVCRWLDLKLGVGDLILTARNQERLDNLQAELGRGKILPLEAALPEADFIVWVASMPQGVVIDPATLKQPCVLIDGGYPKNLGSKVQGEGIYVLNGGVVEHCFDIDWQIMSAAEMARPERQMFACFAEAMLLEFEGWHTNFSWGRNQITIEKMEAIGEASVRHGFQPLALAI
modifications: left off: His6, C-terminal, cleaved
With B2 the “binding of AAR mutant with ADO (in words)” value [4] was “abolish the binding capability with ADO”.

B3: AAR R79A (protein)
chain: MFGLIGHLTSLEQARDVSRRMGYDEYADQGLEFWSSAPPQIVDEITVTSATGKVIHGRYIESCFLPEMLAARRFKTATAKVLNAMSHAQKHGIDISALGGFTSIIFENFDLASLRQVRDTTLEFERFTTGNTHTAYVICRQVEAAAKTLGIDITQATVAVVGATGDIGSAVCRWLDLKLGVGDLILTARNQERLDNLQAELGRGKILPLEAALPEADFIVWVASMPQGVVIDPATLKQPCVLIDGGYPKNLGSKVQGEGIYVLNGGVVEHCFDIDWQIMSAAEMARPERQMFACFAEAMLLEFEGWHTNFSWGRNQITIEKMEAIGEASVRHGFQPLALAI
modifications: left off: His6, C-terminal, cleaved
With B3 the “binding of AAR mutant with ADO (in words)” value [4] was “abolish the binding capability with ADO”.

B4: AAR Y247F: AAR single mutant Y247F (protein)
chain: MFGLIGHLTSLEQARDVSRRMGYDEYADQGLEFWSSAPPQIVDEITVTSATGKVIHGRYIESCFLPEMLAARRFKTATRKVLNAMSHAQKHGIDISALGGFTSIIFENFDLASLRQVRDTTLEFERFTTGNTHTAYVICRQVEAAAKTLGIDITQATVAVVGATGDIGSAVCRWLDLKLGVGDLILTARNQERLDNLQAELGRGKILPLEAALPEADFIVWVASMPQGVVIDPATLKQPCVLIDGGFPKNLGSKVQGEGIYVLNGGVVEHCFDIDWQIMSAAEMARPERQMFACFAEAMLLEFEGWHTNFSWGRNQITIEKMEAIGEASVRHGFQPLALAI
modifications: left off: His6, C-terminal, cleaved
For B4, the “binding of AAR mutant with stearoyl-CoA (in words)” value [2] was “decreased binding affinity”, the “binding of AAR mutant with stearoyl-CoA (in words)” value ([2]; listed as Y247F mutant) was “reduced binding affinity with stearoyl-CoA” and the Octadecanal yield [3] was 61.1 ± 6.76 µg/mL. For the same molecule, the “Octadecanal yield, EVERAGE” value ([3]; source data of Table 3, +K+) was 61.0928, the “Octadecanal yield, single data (data1-data4)” value ([3]; source data of Table 3, +K+) was 68.55 and 59.38 and 55.3483 and the “binding of AAR mutant with ADO (in words)” value [4] was “almost the same as that of AAR wild type”.

B5: aldehyde-deformylating oxygenase from Synechococcus elongatus PCC 7942, D201A mutant (enzyme, UniProt Q54764 1-231, looked up)
chain: MPQLEASLELDFQSESYKDAYSRINAIVIEGEQEAFDNYNRLAEMLPDQRDELHKLAKMEQRHMKGFMACGKNLSVTPDMGFAQKFFERLHENFKAAAAEGKVVTCLLIQSLIIECFAIAAYNIYIPVADAFARKITEGVVRDEYLHRNFGEEWLKANFDASKAELEEANRQNLPLVWLMLNEVADDARELGMERESLVEAFMIAYGEALENIGFTTREIMRMSAYGLAAV
notes: aldehyde-deformylating oxygenase (ADO), Synechococcus elongatus PCC 7942, gene Synpcc7942_1593; Made by PCR on pET24a-ADO; also called ADO D201A; source: E. coli BL21(DE3), purified (same protocol as wild-type ADO); not shown: His6, C-terminal, cleaved
Work on B5 yielded a Kd [5] of 4900 ± 1400 nM.

B6: ADO E196A (protein)
chain: MPQLEASLELDFQSESYKDAYSRINAIVIEGEQEAFDNYNRLAEMLPDQRDELHKLAKMEQRHMKGFMACGKNLSVTPDMGFAQKFFERLHENFKAAAAEGKVVTCLLIQSLIIECFAIAAYNIYIPVADAFARKITEGVVRDEYLHRNFGEEWLKANFDASKAELEEANRQNLPLVWLMLNEVADDARELGMERASLVEDFMIAYGEALENIGFTTREIMRMSAYGLAAV
modifications: left off: His6, C-terminal, cleaved
In the case of B6, the “binding of ADO mutant with AAR (in words)” value (from here on “binding of ADO mutant”) [6] is reported as “significantly reduced binding affinity with AAR”.

B7: ADO E200A (protein)
chain: MPQLEASLELDFQSESYKDAYSRINAIVIEGEQEAFDNYNRLAEMLPDQRDELHKLAKMEQRHMKGFMACGKNLSVTPDMGFAQKFFERLHENFKAAAAEGKVVTCLLIQSLIIECFAIAAYNIYIPVADAFARKITEGVVRDEYLHRNFGEEWLKANFDASKAELEEANRQNLPLVWLMLNEVADDARELGMERESLVADFMIAYGEALENIGFTTREIMRMSAYGLAAV
modifications: left off: His6, C-terminal, cleaved
In the case of B7, the “binding of ADO mutant” value [6] is reported as “significantly reduced binding affinity with AAR”.

B8: ADO E196A/E200A/D201A (protein)
chain: MPQLEASLELDFQSESYKDAYSRINAIVIEGEQEAFDNYNRLAEMLPDQRDELHKLAKMEQRHMKGFMACGKNLSVTPDMGFAQKFFERLHENFKAAAAEGKVVTCLLIQSLIIECFAIAAYNIYIPVADAFARKITEGVVRDEYLHRNFGEEWLKANFDASKAELEEANRQNLPLVWLMLNEVADDARELGMERASLVAAFMIAYGEALENIGFTTREIMRMSAYGLAAV
modifications: left off: His6, C-terminal, cleaved
With B8 the “yield of octadecanal compared with the wild type ADO reaction system (in words)” value ([1]; AAR incubated with wild type or triple mutant ADO) was “similar” and the “binding of ADO mutant” value [6] was “completely lose their capability to bind AAR; also recorded: completely abolished the capability of ADO to bind with AAR”.

B9: ADO E200A/D201A (protein)
chain: MPQLEASLELDFQSESYKDAYSRINAIVIEGEQEAFDNYNRLAEMLPDQRDELHKLAKMEQRHMKGFMACGKNLSVTPDMGFAQKFFERLHENFKAAAAEGKVVTCLLIQSLIIECFAIAAYNIYIPVADAFARKITEGVVRDEYLHRNFGEEWLKANFDASKAELEEANRQNLPLVWLMLNEVADDARELGMERESLVAAFMIAYGEALENIGFTTREIMRMSAYGLAAV
modifications: left off: His6, C-terminal, cleaved
With B9 the “binding of ADO mutant” value [6] was “completely lose their capability to bind AAR; also recorded: completely abolished the capability of ADO to bind with AAR”.

B10: aldehyde-deformylating oxygenase from Synechococcus elongatus PCC 7942, E211A mutant (enzyme, UniProt Q54764 1-231, looked up)
chain: MPQLEASLELDFQSESYKDAYSRINAIVIEGEQEAFDNYNRLAEMLPDQRDELHKLAKMEQRHMKGFMACGKNLSVTPDMGFAQKFFERLHENFKAAAAEGKVVTCLLIQSLIIECFAIAAYNIYIPVADAFARKITEGVVRDEYLHRNFGEEWLKANFDASKAELEEANRQNLPLVWLMLNEVADDARELGMERESLVEDFMIAYGEALANIGFTTREIMRMSAYGLAAV
notes: aldehyde-deformylating oxygenase (ADO), Synechococcus elongatus PCC 7942, gene Synpcc7942_1593; Made by PCR on pET24a-ADO; also called ADO E211A; source: E. coli BL21(DE3), purified (same protocol as wild-type ADO); not shown: His6, C-terminal, cleaved
B10 showed a Kd [5] of 2800 ± 850 nM.

B11: aldehyde-deformylating oxygenase from Synechococcus elongatus PCC 7942, E208A mutant (enzyme, UniProt Q54764 1-231, looked up)
chain: MPQLEASLELDFQSESYKDAYSRINAIVIEGEQEAFDNYNRLAEMLPDQRDELHKLAKMEQRHMKGFMACGKNLSVTPDMGFAQKFFERLHENFKAAAAEGKVVTCLLIQSLIIECFAIAAYNIYIPVADAFARKITEGVVRDEYLHRNFGEEWLKANFDASKAELEEANRQNLPLVWLMLNEVADDARELGMERESLVEDFMIAYGAALENIGFTTREIMRMSAYGLAAV
notes: aldehyde-deformylating oxygenase (ADO), Synechococcus elongatus PCC 7942, gene Synpcc7942_1593; Made by PCR on pET24a-ADO; also called ADO E208A; source: E. coli BL21(DE3), purified (same protocol as wild-type ADO); not shown: His6, C-terminal, cleaved
Work on B11 yielded a Kd [5] of 14800 ± 3700 nM.
